Experimental findings from the supplement of paper PMC12764529 are described below.

± gives the half width of the 95% confidence interval.

Data set [1] in a line: folding stability dG unfold from chymotrypsin proteolysis; higher = more stable. The essentials:
(§1)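 Only designs with AlphaFold2 dimer inter-PAE above 15 were retained; each was a mini-protein under 80 residues with no cysteine, in a PA-tagged cDNA display construct. After digestion with trypsin and chymotrypsin and sequencing, K50 was inferred by Bayesian fitting of counts, and unfolding free energy was derived per protease or combined against a sequence-predicted unfolded-state K50 and a shared folded-state K50.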

Data set [2] in a line: folding stability dG unfold (combined trypsin and chymotrypsin); higher = more stable. An outline of the steps: as §1
The nature of data set [3]: folding stability dG unfold from trypsin proteolysis; higher = more stable. The essentials: as §1

On to “SAKITIFFPFDAVKEILDLLKENGVEVNIERHPGNPWYSATITRPDPNGKELPIEIMMFPDHGYVQITLSAG [r14_169_TrROS]”, for which the “folding stability dG unfold” value was 2.62 ± 0.04 kcal/mol in data set [1], 2.57 ± 0.13 kcal/mol in data set [2] and 2.65 ± 0.14 kcal/mol in data set [3].
As for “SAKIVVKLPEKPKVAVIEFPPGMTKEEILKALEEVPGLSEEEREALKKKIEELEALAKNPELLKKLEEESAG [r14_732_TrROS_Hall]”, the figures for the “folding stability dG unfold” value in data set [1], in data set [2] and in data set [3] were 1.19 ± 0.051 kcal/mol, 0.797 ± 0.12 kcal/mol and -0.378 ± 0.087 kcal/mol, respectively.
In the case of “SAKKAEEIAEKVEKTIKEAAKEKGYDVNIKVKATKGKDGKVTVYIDFDSPENAKEFIEKLPKSVNVVIASAG [r14_491_TrMRF]”, the “folding stability dG unfold” value was found to be 1.42 ± 0.059 kcal/mol in data set [1], 1.41 ± 0.11 kcal/mol in data set [2] and 1.3 ± 0.052 kcal/mol in data set [3].
“SAKKKYIAKVLIEKGDKIIEIEIPGDATVKNPDGKEYTFKVESPEKLKEAIKKLFPEKYPAKILEVKEESAG [r14_41_TrMRF]”: the “folding stability dG unfold” value is 1.73 ± 0.087 kcal/mol in data set [1], 1.54 ± 0.18 kcal/mol in data set [2] and 1.18 ± 0.058 kcal/mol in data set [3].
For the sequence “SAKKPLYLIIVKIGPDGKEIVIVAESEEEARKAAEEELRKLFPDLEIKEIKIIPLEKVKTKEEALELLKSAG [r14_900_TrROS_Hall]”, the “folding stability dG unfold” value in data set [1] came out at 1.92 ± 0.07 kcal/mol; in data set [2] it was 1.89 ± 0.16 kcal/mol; in data set [3], 2.16 ± 0.066 kcal/mol.
The like results for “SAKKTITITKITLTLFNKDGKPVATAEITSIEITYDPKTNTFTITATVKVTLPNGKTFTFKLTITLPVKSAG [r14_609_TrROS_Hall]” were, in that order, 4.87 ± 0.21 kcal/mol, 4.55 ± 0.41 kcal/mol and 3.91 ± 0.18 kcal/mol.
Turning to “SAKKTITLTITNEDGSTFTITITDNKITITNKDNGLVAEAEILPDGTIKLKIYNKNGELIAEITLKIKDSAG [r14_213_TrROS_Hall]”, the entries for the “folding stability dG unfold” value in data set [1], in data set [2] and in data set [3] were 4.32 ± 0.049 kcal/mol, 4.09 ± 0.26 kcal/mol and 3.18 ± 0.32 kcal/mol, respectively.
With “SAKKVEVKKIKVEVTFYDKNGKKVKKKKATITVVKVDGKYYVTIYDENTGKKYVFEFPSLEEAKKALKKSAG [r14_508_TrROS_Hall]”, the “folding stability dG unfold” value stood at 3.09 ± 0.044 kcal/mol in data set [1], 2.77 ± 0.33 kcal/mol in data set [2] and 1.91 ± 0.11 kcal/mol in data set [3].
As to “SAKKVIIEVKSLEELLKAAKEAAKKGEKVEVLVKLKDGYYVKITMEFDKKTKKIKIKKIEIKPIKKEDLSAG [r14_455_TrROS_Hall]”, the “folding stability dG unfold” value in data set [1] was 2.75 ± 0.21 kcal/mol; in data set [2] it was 2.46 ± 0.38 kcal/mol; in data set [3], 2.51 ± 0.12 kcal/mol.
As to “SAKKVPKIEKIEFIPGPNLVKITIPVPEKDKLLVTIDLKDKKLEFELKKNTSFYFSAKYADIKVSVEKKSAG [r14_96_TrMRF]”, the “folding stability dG unfold” value in data set [1] amounted to 3.11 ± 0.14 kcal/mol; in data set [2] it was 3 ± 0.2 kcal/mol; in data set [3] it was 2.28 ± 0.16 kcal/mol.
For the sequence “SAKLAEEIAKKILPEVKEVKILKIEVKKDPKSKFKVIKIEMLVKMPKGEKKIKIEIKPGKPKIKIIPLDSAG [r14_397_TrMRF]”, the entries for the “folding stability dG unfold” value in data set [1], in data set [2] and in data set [3] were 2.85 ± 0.1 kcal/mol, 2.67 ± 0.22 kcal/mol and 2.16 ± 0.09 kcal/mol, respectively.
Consider “SAKLEIELNGYKIVSVEVNEDGTVKMKIEVDGKLYELTLKVKLPPPKVEVKEEKKEVKEVKFVKEGEEKSAG [r14_218_TrROS_Hall]”, for which the “folding stability dG unfold” value in data set [1] came to 2.15 ± 0.094 kcal/mol; in data set [2] it was 2.05 ± 0.3 kcal/mol; in data set [3], 1.18 ± 0.096 kcal/mol.
“SAKMTAEEIAAALAEELGLEVVEVVEVDEETGKITIRVDGKLIEITVVEEDGELKIEVRVVDEETGEELSAG [r14_270_TrROS_Hall]”: the “folding stability dG unfold” value turned out to be 0.852 ± 0.073 kcal/mol in data set [1], 1.36 ± 0.18 kcal/mol in data set [2] and 1.84 ± 0.087 kcal/mol in data set [3].
The matching figures for “SAKMVVLKAYFKGDGDEIKEIADAIDFPYTIEKIPDYPDYYIATFVFPTEEKAPEWEKALKEKGYIVEGSAG [r14_745_TrMRF]”: 2.48 ± 0.037 kcal/mol, 2.25 ± 0.049 kcal/mol and 1.88 ± 0.04 kcal/mol.
As to “SAKPPKVEVKTVRVTIKVRNKDGSTYTITKEVTEVRVEVDGKTVTVTSIKITIELPPGITEVEIKIEKVSAG [r14_892_TrROS_Hall]”, the “folding stability dG unfold” value amounted to 4.84 ± 0.29 kcal/mol in data set [1], 4.47 ± 0.47 kcal/mol in data set [2] and 3.61 ± 0.49 kcal/mol in data set [3].
“SAKTLTIEELAKKLKEELEKKTGKKLSKEELKKKALELAKKLAEEKGLKIKSVKVEEKDGKLTVTVEVESAG [r14_147_TrROS_Hall]”: the “folding stability dG unfold” value in data set [1] turned out to be 3.26 ± 0.082 kcal/mol; in data set [2], 2.84 ± 0.15 kcal/mol; in data set [3] it was 3.2 ± 0.16 kcal/mol.
As for “SAKTVKVRIELTLTVVKVTLDPETGELKVEEVKTLTLEIELEMSEEDLEKARRALEEELKRLLEELGIPSAG [r14_308_TrROS_Hall]”, the “folding stability dG unfold” value amounted to 3.78 ± 0.33 kcal/mol in data set [1], 3.9 ± 0.37 kcal/mol in data set [2] and 3.64 ± 0.29 kcal/mol in data set [3].
Regarding “SAKTVTLKVTLEIEINGVRVKVEATLTLELDENGELKLTLELKIEIEPAPPPKEVKLTEEEKKKLEELKSAG [r14_442_TrROS_Hall]”, the “folding stability dG unfold” value in data set [1] worked out at 3.79 ± 0.2 kcal/mol; in data set [2], 3.25 ± 0.69 kcal/mol; in data set [3], 2.44 ± 0.23 kcal/mol.
With “SAKVYRTKDGKEVKVEKKKVKVKTIEIEIEIEMPKELEEKVKKLAEELAKKLAEELNLPPGAKIKITVRSAG [r14_453_TrROS_Hall]”, the “folding stability dG unfold” value in data set [1] is 2.04 ± 0.051 kcal/mol; in data set [2] it was 2.34 ± 0.17 kcal/mol; in data set [3] it was 2.54 ± 0.06 kcal/mol.
For the sequence “SAKYKIIEAKPGKNVVTITVEYTLPNGEKLTKPIPINAINPVIVEVSEDSITIYDPNNGKLITFPAEKLSAG [r14_947_TrMRF]”, the entries for the “folding stability dG unfold” value in data set [1], in data set [2] and in data set [3] were 2.87 ± 0.037 kcal/mol, 2.49 ± 0.12 kcal/mol and 2.1 ± 0.12 kcal/mol, respectively.
Turning to “SALDVPPDARVYVFRLRYPVPPGVSAADVAARVRAELSERFGPDVEIVVTVTPDPETGEVLVEAVVVEPVSA [r9_657_TrMRF]”, the “folding stability dG unfold” value was determined as 4.05 ± 0.058 kcal/mol in data set [1], 3.82 ± 0.16 kcal/mol in data set [2] and 3.57 ± 0.12 kcal/mol in data set [3].
The like results for “SALEELLKELAEKLGYPYTVLEIKKEENTYKMVIKLTKEGTPVIVDVEIEFPSSDPNVYKVKIKKIEEPSAG [r14_387_JUSTAS]” were, in that order, 3.603 ± 0.027 kcal/mol, 3.49 ± 0.072 kcal/mol and 2.8 ± 0.087 kcal/mol.
Take “SALEIEIEQDEDGNMRISVYLPGWKPIEEQPVPPGDGMKTFIIKLPDRVLMITFTNGGIEPNPVPLNDISAG [r14_403_TrROS]”: the “folding stability dG unfold” value in data set [1] amounted to 2.69 ± 0.092 kcal/mol; in data set [2] it was 2.51 ± 0.23 kcal/mol; in data set [3], 2.44 ± 0.17 kcal/mol.
The matching figures for “SALKIEISFPGNAGEVRERVLGREDGSYEVEFLVTFPTPGDGIPSVLRVTYRVDPVSGKIEPRLEPVDASAG [r14_590_TrMRF]”: 3.24 ± 0.036 kcal/mol, 2.65 ± 0.052 kcal/mol and 1.48 ± 0.025 kcal/mol.
The like results for “SALLVAPDGTVVKPETIKTTVETFTTYFLPPGKPVTRKGVKEYTVTVTTTTYTTPNPTLTVETTVTTVGSAG [r14_291_JUSTAS]” were, in that order, 0.667 ± 0.2 kcal/mol, 0.392 ± 0.2 kcal/mol and -0.0458 ± 0.11 kcal/mol.
Regarding “SALPLPSSAKVELEWELVGVDPGSKGAKVYYRRTLKVTFPTGSLTVTYLVEYDPETGTFSWSITSVSPESAG [r14_293_TrMRF]”, the figures for the “folding stability dG unfold” value in data set [1], in data set [2] and in data set [3] were 5.65 ± 0.095 kcal/mol, 5.38 ± 0.21 kcal/mol and 4.1 ± 0.19 kcal/mol, respectively.
The like results for “SALPPGTTVTYTFYDPATGALVTVTVTTLPDGTVRVTLTVYDPSTGETTTVTFTVDGATLDELLDFIRAGSA [r9_618_TrMRF]” were, in that order, 5.28 ± 0.18 kcal/mol, 5.37 ± 0.32 kcal/mol and 3.77 ± 0.3 kcal/mol.
With “SALRPDIPFDAVEKVVIPARHPLLGGVVEAGVYRLKDSDAVLVVVTFPDGSKLVFLVRPDDVLDVLDAISAG [r14_240_TrMRF]”, the “folding stability dG unfold” value in data set [1] amounted to 2.969 ± 0.01 kcal/mol; in data set [2] it was 2.75 ± 0.045 kcal/mol; in data set [3] it was 2.38 ± 0.066 kcal/mol.
Take “SAMANITANYYDPETGKVLAKDLPLPNGDEVHVTPNPVTGTVTVEWDGPEEALEVIKAALPPDWKIYPLSAG [r14_252_TrMRF]”: the “folding stability dG unfold” value was -0.0765 ± 0.16 kcal/mol in data set [1], 0.362 ± 0.18 kcal/mol in data set [2] and 0.712 ± 0.035 kcal/mol in data set [3].
The like results for “SAMDFPPGSTATIKVEVKNPDNTKTETYEIEVPVDPETGKAITLEDLKEALEKLGVNPENVKIVDIKVGSAG [r14_93_TrMRF]” were, in that order, 2.25 ± 0.2 kcal/mol, 2.72 ± 0.27 kcal/mol and 3.18 ± 0.22 kcal/mol.
Take “SAMEIEIEPLEKEELLKLPGAEIRLFYFPDRVLAEILLPDGTPFFVEFDPSLKPEEVLEKLLKLLEELGSAG [r14_618_TrMRF]”: the “folding stability dG unfold” value in data set [1] turned out to be 4.29 ± 0.1 kcal/mol; in data set [2] it was 4.23 ± 0.13 kcal/mol; in data set [3], 3.98 ± 0.18 kcal/mol.
Turning to “SAMEINIVLVAPPESPEALELAKEVAELVAKEIEEEGIPVEVEVEKIEFFRLPDGSIVVLIPIKVKPPESAG [r14_48_TrMRF]”, the “folding stability dG unfold” value in data set [1] is 3.27 ± 0.074 kcal/mol; in data set [2], 2.63 ± 0.19 kcal/mol; in data set [3], 1.89 ± 0.1 kcal/mol.
As to “SAMEKVYIKVKFEVEGDPNGKEKKTIELIVENPDPNIGKEKLLEIAKEAVEKFAKENGYKVKISEVEIGSAG [r14_190_TrMRF]”, the “folding stability dG unfold” value in data set [1] is 4.22 ± 0.18 kcal/mol; in data set [2] it was 4.29 ± 0.39 kcal/mol; in data set [3], 2.76 ± 0.29 kcal/mol.
With “SAMELEFETDGSVSVEELIEEFKKAFPLVKEIEAEAEPIPYIPKYKVRFKIKLVPVPTPEEIEEFGKKKSAG [r14_645_TrMRF]”, the “folding stability dG unfold” value stood at 1.37 ± 0.21 kcal/mol in data set [1], 1.2 ± 0.17 kcal/mol in data set [2] and 1.02 ± 0.065 kcal/mol in data set [3].
Turning to “SAMELRVESELFPDGRRRLVVLDPGDGAPVVTFIDLEPVDGGYRASITQIGPDPAVAERVARELGIPPESAG [r14_545_TrMRF]”, the “folding stability dG unfold” value in data set [1] was 1.17 ± 0.047 kcal/mol; in data set [2], 0.786 ± 0.082 kcal/mol; in data set [3], -0.191 ± 0.21 kcal/mol.
